Laboratory results from the supplement of paper PMC10065799, “High-throughput profiling of sequence recognition by tyrosine kinases and SH2 domains using bacterial peptide display” (eLife, 2023).

Molecular target: c-Src SH2
Test: SH2 binding enrichment of the phosphorylated peptide, bacterial display (enrichment ratio); higher = better substrate or ligand; peptides without Tyr show the background
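Throughout, for SH2 binding enrichment of the phosphorylated peptide, bacterial display: peptide library displayed on the E. coli surface as eCPX fusions, selected cells deep-sequenced, score is each peptide's frequency after selection divided by its frequency in the input.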
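Throughout, for phosphorylation enrichment, bacterial display: 11-residue human phosphosite peptides and single-mutation variants displayed on the E. coli surface, counted by deep sequencing, each peptide's frequency after selection divided by its frequency in the unselected input library; frequency after pTyr selection over input frequency; kinase dosed for 20-30% of maximal phosphorylation in three min.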

Row | Sequence | SH2 binding enrichment
1 | ARRHPYFFAPE [ALB_Y172_Y174F] | 0.525
2 | SVVVPYESPEV [TP53_Y220_P222S] | 1.66
3 | RRIHSYRGHLW [VHL_Y112] | 0.392
4 | WFPANYVKLLS [ITSN1_Y1132] | 0.893
5 | DLVLQYLRVPL [F9_Y371_A366D] | 0.776
6 | DNEALYDICFC [TUBB3_Y208_R213C] | 0.714
7 | GLVFLYMEKNQ [PRELP_Y156] | 0.634
8 | ERRLIYASDPK [VPS13D_Y864_T865A] | 0.625
9 | PPAPRCHHSAV [LZTR1_Y119_Y119C] | 0.89
10 | NDDDVYLSLEE [VAV2_Y142_R143L] | 0.477
11 | NTGDDYDLYGG [PTPN11_Y63_Y62D] | 0.522
12 | SLESAYPEGSQ [TTF1_Y357] | 0.522
13 | ESLRPYDVMDV [KCNQ2_Y562] | 12.9
14 | FKDYFYCWNTF [AICDA_Y146] | 0.474
15 | DKANRYFSPNF [PTEN_Y336] | 0.587
16 | KDQGIYEDYVE [MYL6_Y86_T85I] | 0.535
17 | EKESCYILHSS [PATJ_Y783_E779K] | 0.719

Row | Sequence | SH2 binding enrichment
18 | EILDVYIFLGP [GAA_Y340_G335E] | 0.46
19 | DLITAYRAHGF [PDHA1_Y118_H113D] | 0.48
20 | LNPLIYTLRNA [OR4C46_Y285_K288R] | 0.521
21 | MEVGQYFFVKC [CYBB_Y324_I325F] | 0.44
22 | KKRSVYIKVLF [CC2D2A_Y683_L684I] | 0.548
23 | KYLENYLNCLL [PLD2_Y169_R172C] | 0.747
24 | YRAVKYLQMVG [AVPR2_Y117_C112Y] | 0.372
25 | AAGGRYDGLVG [HARS1_Y363] | 0.505
26 | RQIQSYTCEID [DES_Y331_H326R] | 0.674
27 | LLKKVYLMLDN [STAT1_Y203_M202V] | 0.566
28 | RREWYYEVIIV [BACE1_Y260] | 0.545
29 | LEDEVYAQKMK [TPM2_Y261] | 0.521
30 | NTGVYYDLYGG [PTPN11_Y63_D61V] | 2.56
31 | HRLSTYTKMLF [CHST8_Y251] | 1.98
32 | PSAVAYPKRSQ [MARK3_Y432_V429A] | 0.473
33 | SVVVPYEPPDV [TP53_Y220_E224D] | 0.735

Molecular target: Grb2 SH2 (UniProt P62993)
Sequence (P62993 whole entry, looked up): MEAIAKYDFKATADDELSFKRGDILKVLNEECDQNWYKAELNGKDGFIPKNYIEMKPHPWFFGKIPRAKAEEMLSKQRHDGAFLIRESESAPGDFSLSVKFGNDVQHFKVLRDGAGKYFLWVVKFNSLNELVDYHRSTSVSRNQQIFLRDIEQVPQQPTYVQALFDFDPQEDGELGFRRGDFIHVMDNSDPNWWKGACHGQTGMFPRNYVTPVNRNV
Test: as above

Row | Sequence | SH2 binding enrichment
34 | ARRHPYFFAPE [ALB_Y172_Y174F] | 0.821
35 | SVVVPYESPEV [TP53_Y220_P222S] | 0.972
36 | RRIHSYRGHLW [VHL_Y112] | 0.799
37 | WFPANYVKLLS [ITSN1_Y1132] | 1.02
38 | DLVLQYLRVPL [F9_Y371_A366D] | 1.47
39 | DNEALYDICFC [TUBB3_Y208_R213C] | 0.865
40 | GLVFLYMEKNQ [PRELP_Y156] | 0.979
41 | ERRLIYASDPK [VPS13D_Y864_T865A] | 0.837
42 | PPAPRCHHSAV [LZTR1_Y119_Y119C] | 1.31
43 | NDDDVYLSLEE [VAV2_Y142_R143L] | 0.834
44 | NTGDDYDLYGG [PTPN11_Y63_Y62D] | 0.804
45 | SLESAYPEGSQ [TTF1_Y357] | 0.861
46 | ESLRPYDVMDV [KCNQ2_Y562] | 0.83
47 | FKDYFYCWNTF [AICDA_Y146] | 0.878
48 | DKANRYFSPNF [PTEN_Y336] | 1.05
49 | KDQGIYEDYVE [MYL6_Y86_T85I] | 0.899
50 | EKESCYILHSS [PATJ_Y783_E779K] | 0.959

Row | Sequence | SH2 binding enrichment
51 | EILDVYIFLGP [GAA_Y340_G335E] | 0.965
52 | DLITAYRAHGF [PDHA1_Y118_H113D] | 0.81
53 | LNPLIYTLRNA [OR4C46_Y285_K288R] | 0.798
54 | MEVGQYFFVKC [CYBB_Y324_I325F] | 0.716
55 | KKRSVYIKVLF [CC2D2A_Y683_L684I] | 1.1
56 | KYLENYLNCLL [PLD2_Y169_R172C] | 0.983
57 | YRAVKYLQMVG [AVPR2_Y117_C112Y] | 0.709
58 | AAGGRYDGLVG [HARS1_Y363] | 0.806
59 | RQIQSYTCEID [DES_Y331_H326R] | 0.899
60 | LLKKVYLMLDN [STAT1_Y203_M202V] | 0.96
61 | RREWYYEVIIV [BACE1_Y260] | 0.873
62 | LEDEVYAQKMK [TPM2_Y261] | 0.953
63 | NTGVYYDLYGG [PTPN11_Y63_D61V] | 0.95
64 | HRLSTYTKMLF [CHST8_Y251] | 1.7
65 | PSAVAYPKRSQ [MARK3_Y432_V429A] | 1.06
66 | SVVVPYEPPDV [TP53_Y220_E224D] | 0.89

Molecular target: SHP2-C SH2
Test: as above

Row | Sequence | SH2 binding enrichment
67 | ARRHPYFFAPE [ALB_Y172_Y174F] | 0.566
68 | SVVVPYESPEV [TP53_Y220_P222S] | 0.689
69 | RRIHSYRGHLW [VHL_Y112] | 0.641
70 | WFPANYVKLLS [ITSN1_Y1132] | 2.25
71 | DLVLQYLRVPL [F9_Y371_A366D] | 1.23
72 | DNEALYDICFC [TUBB3_Y208_R213C] | 0.8
73 | GLVFLYMEKNQ [PRELP_Y156] | 0.873
74 | ERRLIYASDPK [VPS13D_Y864_T865A] | 0.589
75 | PPAPRCHHSAV [LZTR1_Y119_Y119C] | 1.51
76 | NDDDVYLSLEE [VAV2_Y142_R143L] | 0.616
77 | NTGDDYDLYGG [PTPN11_Y63_Y62D] | 0.521
78 | SLESAYPEGSQ [TTF1_Y357] | 0.814
79 | ESLRPYDVMDV [KCNQ2_Y562] | 0.558
80 | FKDYFYCWNTF [AICDA_Y146] | 0.662
81 | DKANRYFSPNF [PTEN_Y336] | 1.16
82 | KDQGIYEDYVE [MYL6_Y86_T85I] | 0.905
83 | EKESCYILHSS [PATJ_Y783_E779K] | 0.694

Row | Sequence | SH2 binding enrichment
84 | EILDVYIFLGP [GAA_Y340_G335E] | 0.793
85 | DLITAYRAHGF [PDHA1_Y118_H113D] | 0.936
86 | LNPLIYTLRNA [OR4C46_Y285_K288R] | 0.738
87 | MEVGQYFFVKC [CYBB_Y324_I325F] | 0.61
88 | KKRSVYIKVLF [CC2D2A_Y683_L684I] | 0.646
89 | KYLENYLNCLL [PLD2_Y169_R172C] | 0.835
90 | YRAVKYLQMVG [AVPR2_Y117_C112Y] | 2.33
91 | AAGGRYDGLVG [HARS1_Y363] | 0.514
92 | RQIQSYTCEID [DES_Y331_H326R] | 0.701
93 | LLKKVYLMLDN [STAT1_Y203_M202V] | 0.793
94 | RREWYYEVIIV [BACE1_Y260] | 0.75
95 | LEDEVYAQKMK [TPM2_Y261] | 0.836
96 | NTGVYYDLYGG [PTPN11_Y63_D61V] | 0.644
97 | HRLSTYTKMLF [CHST8_Y251] | 1.87
98 | PSAVAYPKRSQ [MARK3_Y432_V429A] | 0.646
99 | SVVVPYEPPDV [TP53_Y220_E224D] | 0.73

Molecular target: EPHB2 (UniProt P29323)
Sequence (P29323 whole entry, looked up): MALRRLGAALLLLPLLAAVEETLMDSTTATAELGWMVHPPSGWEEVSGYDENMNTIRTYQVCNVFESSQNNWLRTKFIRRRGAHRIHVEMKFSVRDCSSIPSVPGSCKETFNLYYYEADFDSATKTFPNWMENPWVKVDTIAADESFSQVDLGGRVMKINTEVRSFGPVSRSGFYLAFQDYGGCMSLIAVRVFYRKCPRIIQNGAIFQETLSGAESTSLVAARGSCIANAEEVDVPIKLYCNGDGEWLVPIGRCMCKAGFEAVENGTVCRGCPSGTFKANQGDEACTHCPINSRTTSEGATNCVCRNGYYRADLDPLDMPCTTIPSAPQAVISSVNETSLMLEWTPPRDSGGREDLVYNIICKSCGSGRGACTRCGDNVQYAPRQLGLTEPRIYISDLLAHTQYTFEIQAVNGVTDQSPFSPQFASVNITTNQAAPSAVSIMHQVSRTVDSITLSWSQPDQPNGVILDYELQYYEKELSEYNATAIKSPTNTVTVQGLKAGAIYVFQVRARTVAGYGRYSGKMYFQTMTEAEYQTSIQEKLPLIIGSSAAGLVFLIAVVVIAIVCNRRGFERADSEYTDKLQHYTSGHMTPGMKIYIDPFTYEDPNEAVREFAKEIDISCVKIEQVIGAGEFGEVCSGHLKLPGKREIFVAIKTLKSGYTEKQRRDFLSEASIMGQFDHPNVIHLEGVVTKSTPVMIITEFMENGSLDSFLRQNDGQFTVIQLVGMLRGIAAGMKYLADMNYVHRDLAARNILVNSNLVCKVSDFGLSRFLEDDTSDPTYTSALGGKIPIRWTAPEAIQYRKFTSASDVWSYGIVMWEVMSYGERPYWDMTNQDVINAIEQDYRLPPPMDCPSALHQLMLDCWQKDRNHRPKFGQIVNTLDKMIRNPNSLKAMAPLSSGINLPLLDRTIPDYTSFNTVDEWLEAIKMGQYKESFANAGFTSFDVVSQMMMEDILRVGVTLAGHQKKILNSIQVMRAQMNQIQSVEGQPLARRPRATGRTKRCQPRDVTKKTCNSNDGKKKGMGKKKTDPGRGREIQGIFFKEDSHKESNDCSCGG
Test: phosphorylation enrichment, bacterial display (enrichment ratio); higher = better substrate or ligand; peptides without Tyr show the background

Row | Sequence | phosphorylation enrichment
100 | ARRHPYFFAPE [ALB_Y172_Y174F] | 0.635
101 | SVVVPYESPEV [TP53_Y220_P222S] | 0.609
102 | RRIHSYRGHLW [VHL_Y112] | 1.46
103 | WFPANYVKLLS [ITSN1_Y1132] | 1.52
104 | DLVLQYLRVPL [F9_Y371_A366D] | 0.525
105 | DNEALYDICFC [TUBB3_Y208_R213C] | 5.33
106 | GLVFLYMEKNQ [PRELP_Y156] | 0.523
107 | ERRLIYASDPK [VPS13D_Y864_T865A] | 0.391
108 | PPAPRCHHSAV [LZTR1_Y119_Y119C] | 0.701
109 | NDDDVYLSLEE [VAV2_Y142_R143L] | 0.627
110 | NTGDDYDLYGG [PTPN11_Y63_Y62D] | 1.05
111 | SLESAYPEGSQ [TTF1_Y357] | 0.574
112 | ESLRPYDVMDV [KCNQ2_Y562] | 0.683
113 | FKDYFYCWNTF [AICDA_Y146] | 2.87
114 | DKANRYFSPNF [PTEN_Y336] | 0.301
115 | KDQGIYEDYVE [MYL6_Y86_T85I] | 0.853
116 | EKESCYILHSS [PATJ_Y783_E779K] | 0.519

Row | Sequence | phosphorylation enrichment
117 | EILDVYIFLGP [GAA_Y340_G335E] | 0.889
118 | DLITAYRAHGF [PDHA1_Y118_H113D] | 0.428
119 | LNPLIYTLRNA [OR4C46_Y285_K288R] | 0.9
120 | MEVGQYFFVKC [CYBB_Y324_I325F] | 0.8
121 | KKRSVYIKVLF [CC2D2A_Y683_L684I] | 0.396
122 | KYLENYLNCLL [PLD2_Y169_R172C] | 0.776
123 | YRAVKYLQMVG [AVPR2_Y117_C112Y] | 0.539
124 | AAGGRYDGLVG [HARS1_Y363] | 0.351
125 | RQIQSYTCEID [DES_Y331_H326R] | 0.514
126 | LLKKVYLMLDN [STAT1_Y203_M202V] | 0.953
127 | RREWYYEVIIV [BACE1_Y260] | 0.725
128 | LEDEVYAQKMK [TPM2_Y261] | 1.08
129 | NTGVYYDLYGG [PTPN11_Y63_D61V] | 5.04
130 | HRLSTYTKMLF [CHST8_Y251] | 0.655
131 | PSAVAYPKRSQ [MARK3_Y432_V429A] | 0.563
132 | SVVVPYEPPDV [TP53_Y220_E224D] | 0.528
